Laboratory results as given in the supplement of paper PMC9170038.

How the values were obtained:
MS2 coat protein [1] = test: apparent KD of MS2 coat protein, switch OFF state (with FMN for OFF switches, without FMN for ON switches); designed switch direction (-1 OFF switch, 1 ON switch): -1; higher = weaker reporter binding; settings: FMN input: 0 or 200 uM; Eterna round: R93 (includes R88 designs)
Outline: (§1)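 Titrations with SNAP-549-labelled MS2 coat protein ran in twofold steps from 0.7 or 1.5 nM to 3 µM, each step taking 0.8–1.5 h at the start and 10–20 min toward the end. The targets were designed RNA switches transcribed on-chip from Illumina sequencing clusters, held in 100 mM Tris-HCl pH 7.5, 80 mM KCl, 4 mM MgCl2, without or with constant ligand. Apparent KD was taken per design as the median of normalised cluster binding-curve fits.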

MS2 coat protein [2] = test: apparent KD of MS2 coat protein, switch ON state; designed switch direction (-1 OFF switch, 1 ON switch): -1; higher = weaker reporter binding; settings: FMN input: 0 or 200 uM; Eterna round: R93 (includes R88 designs)
Outline: as §1

MS2 coat protein [3] = test: apparent KD of MS2 coat protein; designed switch direction (-1 OFF switch, 1 ON switch): 1; higher = weaker reporter binding
Outline: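 Designed RNA switches were transcribed on Illumina chips by stalled E. coli RNA polymerase and titrated with SNAP-549-labelled MS2 coat protein from 0.7 or 1.5 nM, doubling to 3 µM. Step length ran from 0.8–1.5 h at the lowest concentration to 10–20 min at the highest. The apparent KD is the median over clusters for each design, from curve-fitted normalised cluster fluorescence.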

[4] = input ligand: microRNA oligo, concentration not stated
[5] = Eterna round: R95, input ligand: FMN 200 uM
[6] = Eterna round: R95, input ligand: microRNA oligo, concentration not stated
[7] = Eterna round: R95, input ligand: none

| Sequence | apparent KD of MS2 coat protein (MS2 coat protein [1]) [nM] | apparent KD of MS2 coat protein (MS2 coat protein [2]) [nM] | other results |
| --- | --- | --- | --- |
| AUAAAACAUGAGGAUCACCCAUGUGAGGAUAUGCGAAAAAAAAAAAGAAAAAAAAAAAGCAGAAGGCACAAUAA [Amethyst 43] | 34.9 | 32.8 |  |
| AAGAAAGCAGGAUAUACAUGAGGAUCACCCAUGUAAAAGAAAGAAGGGAAAGAGAAAAGUAGAAGGGCUAAGAA [Wehemibre Necho II] | 38.7 | 20.9 |  |
| AACAGGACAGGAUAUACAUGAGGAUCACCCAUGUAGGAAACAAGCAGAGUACCAAAAAGUAGAAGGGUCAUGGA [Ruby 30] | 63.3 | 38.8 |  |
| AAAAAAGGAGGAUAUACGAACAUGUCAAAAGACGUGAAGGGACAUGAGGAUCACCCAUGUAGAAGGUCUAAAAA [JL Part Open 35] | 34.1 | 52.3 |  |
| CUCUAGUAAGGAUAUGGAAGAAAAGAAAAGAAAGAAAAGAACCAGAAGGUACAUGAGGAUCACCCAUGUAAGAA [EteRNA is fun!] | 23.4 | 48.9 |  |
| AGCUAGUCAGGAUAUACGAACAUGUCGAGAGACGUGAAGGGACAUGAGGAUCACCCAUGUAGAAGGGACUAGCA [Mat - Exclusion 2 - JL mod - D2] | 170 | 35.5 |  |
| AAGAAGUGAGGAUAUCGAAGACAGACGAAAAGUCUGUCAAACGAGAAGGCACAUGAGGAUCACCCAUGUGGGAA [What have we learned so far? 64% 3] | 169 | 69.5 |  |
| AUAAACGGAGGAUAUACAUGAGGAUCACCCAUGUAAAAAAAAAAAAGUUCCUCAAAAAGUAGAAGGUCGAAUAA [JR_Exc003_Sub012] | 13 | 15.5 |  |
| AGCUAGUCAGGAUAUACGAGCAUGUCAAAAGACGUGAAGGGACAUGAGGAUCACCCAUGUAGAAGGGACUAGCA [Diamond 22] | 122 | 40.3 |  |
| AAAACGUGAGGAUAUACAUGAGGAUCACCCAUGUGAAACAGGAAAAACUGAAAGAAAAGUAGAAGGCACGAAAA [Tweaking Eli] | 44.4 | 29 |  |
| AAAAGACAUGAGGAUCACCCAUGUGAGGAUAUGACGUAAAGAAAGAAAGAAGAAAUCGUCAGAAGGCACACCUA [Mat - Exclusion 1 - Eli mod - D68] | 63.5 | 31.6 |  |
| AACGAACAUGAGGAUCACCCAUGUCAGGAUAUGCAAAGAACGAUCGAACGAACGAUAAGCAGAAGGGACAGAGA [Amethyst 97] | 40.4 | 27.7 |  |
| AAUAAGUGAGGAUAUACGAAAUAAAUAAAUAAAUAAAUAAAGUAGAAGGCACAUGAGGAUCACCCAUGUAAUAA [My Mind Is Going Dave] | 29.7 | 34.4 |  |
| UCCGGAUUAGGAUAUACAUGAGGAUCACCCAUGUGACAAAAAUAUUUUACAAAACCAUGUAGAAGGAAUCCGGA [E3-1.3] | 408 | 125 |  |
| CUCUUGUCAGGAUAUGAAAGAAAAGAAGAGAAAGAAAAGAAUCAGAAGGGACAUGAGGAUCACCCAUGUAAGAA [EteRNA is fun!] | 77.9 | 43.6 |  |
| AAGAAAGCAGGAUAUACAAAAUAAAAGAAAAGAAAGAAAGAACAUGAGGAUCACCCAUGUAGAAGGGCUAAGAA [Khahotepre Sobekhotep VI] | 32.3 | 38 |  |
| GAAAAGUCAGGAUAUGCAGAAAAAAAAACGAAAAAAAAACUGCAGAAGGGACAUGAGGAUCACCCAUGUUAAAG [Mat - Exclusion 4 - Mayanna - D128] | 33.1 | 50.9 |  |
| AAAAAACAUGAGGAUCACCCAUGUAAGGAUAUGCGAAAUAAAAGAAAUAAAAAGGAAAGCAGAAGGUACAUGAA [JL wbt mod 8] | 84.4 | 27.2 |  |
| AAAAAGGGAGGAUAUACAUGAGGAUCACCCAUGUAAAACGCGCCAACAAAGAAACAAAGUAGAAGGCCCAAAAA [Default title] | 14.5 | 17.3 |  |
| AACAAGACAGGAUAUACAUGAGGAUCACCCAUGUCACAAUAAAGUAGCGUAACACAAAGUAGAAGGGUCAUGGA [Ruby 8] | 50.4 | 41.5 |  |

| Sequence | apparent KD of MS2 coat protein (MS2 coat protein [1]) [nM] | apparent KD of MS2 coat protein (MS2 coat protein [2]) [nM] | other results |
| --- | --- | --- | --- |
| AACCAACAUGAGGAUCACCCAUGUCAGGAUAUGCGUACAACAUACAACAUACAUCAAAGCAGAAGGGACACAAA [Amethyst 84] | 23.6 | 20.2 |  |
| ACUUAGACAGGAUAUACGUGAGUGGAAAAAGUGUAUCCACUACAUGAGGAUCACCCAUGUAGAAGGGUCUAAGA [Ex2 Design 182: Random 7] | 19.7 | 18.6 |  |
| AGUUGGCGAGGAUAUACAUGAGGAUCACCCAUGUGAGAGUAAAAAGUGAGAAAGAAAAGUAGAAGGCGCUAACA [JL Lego Mod 19] | 352 | 48.8 |  |
| UCACACCUAGGAUAUACAUGAGGAUCACCCAUGUGGCACUCCGCAGGCAUUGCUCCCAGUAGAAGGAGGACACG [Veterexe] | 23.8 | 18.9 |  |
| AAGAACGCAGGAUAUACAUGAGGAUCACCCAUGUAAAAGAAAGAAAAGGGAAAGAAAAGUAGAAGGGCGAAGAA [Aakheperkare Thutmose I] | 33.1 | 33.9 |  |
| AGAAAGGCAGGAUAUACAUGAGGAUCACCCAUGUUAAGAGUGACGGAAACGUCACGAAGUAGAAGGGCCAAGAA [The song I sing] | 17.3 | 20.4 |  |
| AAUUCACAUGAGGAUCACCCAUGUAAGGAUAUCGAAAUAAAACUAAUCAAAAAACAAACGAGAAGGUACAAAAA [Exclusion 1 design 7] | 26.3 | 23.6 |  |
| CCAAACGGAGGAUAUACAAAUUAAGGAAAAAAACGCGAAAAACAUGAGGAUCACCCAUGUAGAAGGCCGAAAAA [Ex 2 #2] | 18.5 | 20.3 |  |
| AAGUAUCGAGGAUAUACAUAGAUACAGAUUCAUGUAGAACUACAUGAGGAUCACCCAUGUAGAAGGCGAUAAUA [AJ 33] | 79.3 | 31.8 |  |
| GUGUACAGAGGAUAUACAUGAGCAUGGAAACAUGCAGGAUCACAUGAGGAUCACCCAUGUAGAAGGCUGUACAC [Ex2: 732] | 12 | 35.1 |  |
| AAAGGACAUGAGGAUCACCCAUGUGAGGAUAUGACGUAAAUAAAGAAAGAAGAAAUCGUCAGAAGGCACACCUA [55%, Disencluded 2, 2] | 45.1 | 40.7 |  |
| AAAAAACAUGAGGAUCACCCAUGUAAGGAUAUGUAAAAUAAAAGAAAAAUAAAGAAAAGCAGAAGGUACAUGUA [JL wbt mod 16] | 44.5 | 40.4 |  |
| AAAAAAGCAGGAUAUACGAACAUGUCAAAAGACGUGAAGGGACAUGAGGAUCACCCAUGUAGAAGGGUUAAGAA [JL Stem Breaker 16] | 36.8 | 179 |  |
| AUUAAGUGAGGAUAUGAGUGAACAACAAAACAAAUAACGACUCAGAAGGCACAUGAGGAUCACCCAUGUAUAAA [May 69] | 28.7 | 31.7 |  |
| GAGCCAGUCCGAGGAUAUUCAUAUUACAUGAGGAUCACCCAUGUAGGCUCAGAAAAGGAGCCUUGGGAGAAGGCGGACUGGCUC [Xeonanisa<<3] (Eterna round: R96, puzzle: Same State NG 2) |  |  | apparent KD of MS2 coat protein (MS2 coat protein [3]; input ligand: FMN 200 uM): 13.4 nM; apparent KD of MS2 coat protein (MS2 coat protein [3]; [4]): 153 nM; apparent KD of MS2 coat protein (MS2 coat protein [3]; input ligand: none): 217 nM |
| AAUAUACAUGAGGAUCACCCAUGUUAGUAAAUGACAGGAUAUGGAAUAAAUAAAUAAUAACCAGAAGGGUCUAAUA [JMF's solution 2] (puzzle: Same State 1) |  |  | apparent KD of MS2 coat protein (MS2 coat protein [3]; [5]): 16 nM; apparent KD of MS2 coat protein (MS2 coat protein [3]; [6]): 24.9 nM; apparent KD of MS2 coat protein (MS2 coat protein [3]; [7]): 28.5 nM |
| CAUCGUUUGAUAGGAUAUCGCUAUACAUGAGGAUCACCCAUGUUUACCACGCUGGUUUUUCAUACCGAGAAGGAUUCUGAUGUU [salish99_SSNG02_r04_015] (Eterna round: R96, puzzle: Same State NG 2) |  |  | apparent KD of MS2 coat protein (MS2 coat protein [3]; input ligand: FMN 200 uM): 36 nM; apparent KD of MS2 coat protein (MS2 coat protein [3]; [4]): 25.2 nM; apparent KD of MS2 coat protein (MS2 coat protein [3]; input ligand: none): 38.6 nM |
| UGGAUCUAGGCUUGCCUGGGUCCAUGUUGACAUGAGGAUCACCCAUGUGUAUUUUUUAAGCUUUUUGUUUGUCAACU [JL A Humble Attempt mod 9] (puzzle: Sensor for hsa-mir-208a) |  |  | apparent KD of MS2 coat protein (MS2 coat protein [3]; [5]): 28.3 nM; apparent KD of MS2 coat protein (MS2 coat protein [3]; [6]): 12.5 nM; apparent KD of MS2 coat protein (MS2 coat protein [3]; [7]): 29.3 nM |
| UUAAGCCACGGGCAGGAUAUGUAUUAAUAUACAUGAGGAUCACCCAUGUGCAGGUGUAACACCUGACAGAAGGGCCAAUCGCGGC [Soondi - 5] (puzzle: Same State 2) |  |  | apparent KD of MS2 coat protein (MS2 coat protein [3]; [5]): 35 nM; apparent KD of MS2 coat protein (MS2 coat protein [3]; [6]): 177 nM; apparent KD of MS2 coat protein (MS2 coat protein [3]; [7]): 286 nM |
| GUCGGUCUGUCGUGCUGUGGUGAUAGUUAACAUGAGGAUCACCCAUGUUGCUUUCGGGUCGUUGGGAGUUUUUUUCG [Modxample 121 - Jieux - Sensor for bsa-mir-208a] (Eterna round: R96, puzzle: Sensor for hsa-mir-208a) |  |  | apparent KD of MS2 coat protein (MS2 coat protein [3]; input ligand: FMN 200 uM): 63.1 nM; apparent KD of MS2 coat protein (MS2 coat protein [3]; [4]): 43.9 nM; apparent KD of MS2 coat protein (MS2 coat protein [3]; input ligand: none): 64 nM |
